What all share (settings): FMN input: 0 or 200 uM; Eterna round: R93 (includes R88 designs)
Series [1] deals with MS2 coat protein. The series is described as follows: apparent KD of MS2 coat protein, switch ON state; designed switch direction (-1 OFF switch, 1 ON switch): 1; higher = weaker reporter binding. The method in brief:
(§1)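 In 100 mM Tris-HCl pH 7.5 with 80 mM KCl and 4 mM MgCl2, and without or with constant ligand, SNAP-549-labelled MS2 coat protein was titrated in twofold steps from 0.7 or 1.5 nM to 3 µM. Per-step times went from 0.8–1.5 h down to 10–20 min. The RNA switches were transcribed on-chip from Illumina sequencing clusters, and apparent KD is the per-design median of normalised cluster binding-curve fits.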

Series [2] deals with MS2 coat protein. The series is described as follows: apparent KD of MS2 coat protein, switch OFF state (with FMN for OFF switches, without FMN for ON switches); designed switch direction (-1 OFF switch, 1 ON switch): 1; higher = weaker reporter binding. In short, it runs like this: as §1
Series [3] relates to MS2 coat protein. The series is described as follows: apparent KD of MS2 coat protein, switch ON state; designed switch direction (-1 OFF switch, 1 ON switch): -1; higher = weaker reporter binding. In short, it runs like this:
as §1

Series [4] relates to MS2 coat protein. The series is described as follows: apparent KD of MS2 coat protein, switch OFF state (with FMN for OFF switches, without FMN for ON switches); designed switch direction (-1 OFF switch, 1 ON switch): -1; higher = weaker reporter binding. In short, it runs like this: as §1

Regarding “AAAAAAAAAACUGAGGAUAUCAGGGAUGGUACAUGAGGAUCACCCAUGUUGGCGGGCGAAGAAACUGAGAAGGCAGAAAAAAAAAA [JR_SameState2_Sub4]”, the “apparent KD of MS2 coat protein” value with MS2 coat protein [1] stood at 40.4 nM; in the series with MS2 coat protein [2] it was 79.6 nM.
Consider “AAAAAAAAAGUCGAGGAUAUCCACAUGGCUACAUGAGGAUCACCCAUGUGAAGAAAAGCACAUGAGGAGAAGGCGACAAAAAAAAA [Tightrope]”, for which the “apparent KD of MS2 coat protein” value with MS2 coat protein [1] turned out to be 11.6 nM; with MS2 coat protein [2] it was 24.5 nM.
The like results for “AAAAAACAUGAGGAUCACCCAUGUAAAAAAAUGGGAGGAUAUCUGAAUUAAUUAAAUUAAGGAGAAGGCCUAAAAA [71%, Same state of confusion2, 4]” were, in that order, 26 nM and 425 nM.
The like results for “AAAAAACAUGAGGAUCACCCAUGUAAAAAUAUGGGAGGAUAUGCGAAAAGAAACAAAGAAGCAGAAGGCCUAAAAA [75%, Ex5 sub 1, 8]” were, in that order, 25.6 nM and 185 nM.
For “AAAAAACAUGAGGAUCACCCAUGUAGAAAUAUGGGAGGAUAUACAAAGACGAAAGUCAAAGUAGAAGGCCUAAAAA [77%, Mat - Mod of Eli, 2]”, the “apparent KD of MS2 coat protein” value worked out at 18.2 nM with MS2 coat protein [1] and 57.8 nM with MS2 coat protein [2].
For “AAAAAACAUGAGGAUCACCCAUGUCAAAAGACAUGAGGAUAUGUACAGACUUCGGUCUGUACAGAAGGCAUGUCAA [SS1 - 1019]” the same measures were 21.1 nM and 31.7 nM.
For “AAAAAACAUGAGGAUCACCCAUGUCUUCGGACAUGAGGAUAUGUACAGACUUCGGUCUGUACAGAAGGCAUAAAAA [SS1 - 1010]” the same measures were 221 nM and 12.6 nM.
As for “AAAAAACAUGAGGAUCACCCAUGUGAAAAAUUCGCAGGAUAUCCCUUUUUUAAAUGGGAGGGAGAAGGGUGAAAAA [Nob's Hobby 16 - Jieux - Same State 1]”, the results for the “apparent KD of MS2 coat protein” value in the series on MS2 coat protein [1] and in the series on MS2 coat protein [2] were 34.8 nM and 112 nM, respectively.
Consider “AAAAAACAUGAGGAUCACCCAUGUGACAACAUGGGAGGAUAUACAAAGACGAGAGUCGAAGUAGAAGGCCUAAAAA [Garnet 77]”, for which the entries for the “apparent KD of MS2 coat protein” value with MS2 coat protein [1] and with MS2 coat protein [2] were 66.1 nM and 32.6 nM, respectively.
“AAAAAACAUGAGGAUCACCCAUGUGAGAAUAUGGAAGGAUAUACAAAGACGAAAGUCAAAGUAGAAGGUCUAAAAG [Mat - Same State 1 - Eli mod - D90]”: the “apparent KD of MS2 coat protein” value stood at 31.1 nM in the series on MS2 coat protein [1] and 31.5 nM in the series with MS2 coat protein [2].
As to “AAAACACAUGAGGAUCACCCAUGUAAAAACAUGAGAGGAUAUGCAUGGAAAAAAAACUAUGCAGAAGGCUCAUGUG [SS1 - 4]”, the “apparent KD of MS2 coat protein” value with MS2 coat protein [1] stood at 21.2 nM; in the series on MS2 coat protein [2], 32.2 nM.
For “AAAACACAUGAGGAUCACCCAUGUAAAAACUUGGGAGGAUAUGCUUGGAAAACAUGCUAUGCAGAAGGCUCUAGUG [SS1 - 13]”, the “apparent KD of MS2 coat protein” value in the series with MS2 coat protein [1] was found to be 49.9 nM; with MS2 coat protein [2] it was 123 nM.
For “AAAACACAUGAGGAUCACCCAUGUAGAAAUACGGGAGGAUAUGCAAAAACGAAAGACAAAGUAGAAGGCCUAAAAG [saturn 9]” the same measures were 26.2 nM and 67 nM.
For the sequence “GCUGGCCAAGGAUAUACAUGAGGAUCACCCAUGUGAGAGAAAAAAGUGAGAAAGAAAAGUAGAAGGUGGGUAGG [salish99-ex3-111]”, the “apparent KD of MS2 coat protein” value in the series with MS2 coat protein [3] came out at 59 nM; in the series with MS2 coat protein [4], 56.9 nM.
On to “GCUGUCCAAGGAUAUACAUGAGGAUCACCCAUGUGAGAGAAAAAAGUGAGAAAGAAAAGUAGAAGGUGGGUAGG [salish99-ex3-103]”, for which the results for the “apparent KD of MS2 coat protein” value in the series with MS2 coat protein [3] and in the series on MS2 coat protein [4] were 31.6 nM and 56.6 nM, respectively.
For “GGAAAACAUGAGGAUCACCCAUGUAAGGAUAUGCUAAAAAAAAAAAAAAACCCACCAGGCAGAAGGUACUAAAG [Janelle Amethyst 18 Mod 2 - Jieux - Exclusion 1]” the same measures were 20.4 nM and 26.8 nM.
Take “GGUUGAAAAGGAUAUACAUGAGGAUCACCCAUGUGAGAGAAAAAAGUGAGAAAGAAAAGUAGAAGGUUUUGACG [salish99-ex3-61]”: the “apparent KD of MS2 coat protein” value in the series on MS2 coat protein [3] is 22.8 nM; with MS2 coat protein [4], 44 nM.
“GGUUGGCGAGGAUAUACAUGAGGAUCACCCAUGUGAGAGAAAAAAGUGAGAAACAAAAGUAGAAGGCGCUGACG [salish99-ex3-26]”: the results for the “apparent KD of MS2 coat protein” value with MS2 coat protein [3] and in the series on MS2 coat protein [4] were 79.8 nM and 657 nM, respectively.
The like results for “GGUUGGCGAGGAUAUACAUGAGGAUCACCCAUGUGAGAGAAAAAAGUGAGAAAGCAAAGUAGAAGGCGCUGACG [salish99-ex3-27]” were, in that order, 51.4 nM and 321 nM.
The like results for “GGUUGGCGAGGAUAUACAUGAGGAUCACCCAUGUGAGAGAAAUAAGUGAGAAAGAAAAGUAGAAGGCGCUGACG [salish99-ex3-43]” were, in that order, 87.7 nM and 1700 nM.
For the sequence “GGUUGGCGAGGAUAUACAUGAGGAUCACCCAUGUGAGAGUAAAAAGUGAGAAAGAAAAGUAGAAGGCGCUGACG [salish99-ex3-46]”, the “apparent KD of MS2 coat protein” value worked out at 27.1 nM with MS2 coat protein [3] and 85.1 nM in the series on MS2 coat protein [4].
For “GGUUGGCGAGGAUAUACAUGAGGAUCACCCAUGUGAGUGAAAAAAGUGAGAAAGAAAAGUAGAAGGCGCUGACG [salish99-ex3-47]” the same measures were 161 nM and 489 nM.
The like results for “GUAAACCUAGGAUAUACAUGAGGAUCACCCAUGUAAAGUUUCGUAAAAAGAAAAUCGAGUAGAAGGAGGUAGAU [JR_Exc003_Sub1222]” were, in that order, 22.5 nM and 26.6 nM.
For “GUGGAACAUGAGGAUCACCCAUGUGAGGAUAUAGGUUUUUGGGAAAAACUAGGAGAAACUAGAAGGCGCAAGAA [Exclusion 1.1]” the same measures were 26.2 nM and 22 nM.
For “UAAAAACAUGAGGAUCACCCAUGUCAGGAUAUGUGCUCAGUGAAAAACUGAGUAACAAGCAGAAGGGACAAUAA [JR_Exc001_Sub202]”, the “apparent KD of MS2 coat protein” value with MS2 coat protein [3] stood at 23.6 nM; in the series on MS2 coat protein [4] it was 31.4 nM.
For “UAAACCCUAGGAUAUACAUGAGGAUCACCCAUGUUUGUCGAAGAACGAACAGUCCUCAGUAGAAGGAGGACGAA [Geriza]” the same measures were 27.4 nM and 24.3 nM.
For “UAUACGUGAGGAUAUGCGAAUAACACGUUAGACAAAUAGACGCAGAAGGCACAUGAGGAUCACCCAUGUGAACC [JR_Exc004_Sub316]” the same measures were 18.1 nM and 17 nM.
For “UCCGGACAUGAGGAUCACCCAUGUGAGGAUAUAUAAAGUGGGACUGGAAACAGUCCCAAUAGAAGGCACAUGAA [Celaar]” the same measures were 21.2 nM and 19.6 nM.
With “UCCUGACAUGAGGAUCACCCAUGUCAGGAUAUAGUAUGAAAAAAAAAAAAAAAAAAUACUAGAAGGGACAAGGG [Design 13: Super Stable Short Helix 4]”, the entries for the “apparent KD of MS2 coat protein” value with MS2 coat protein [3] and in the series with MS2 coat protein [4] were 18.5 nM and 26.8 nM, respectively.
The like results for “UCUUGACAUGAGGAUCACCCAUGUCAGGAUAUAGUAGGACAAAUAAAUAAAAGUUCUACUAGAAGGGAUAUGGA [Design 18: G-U+]” were, in that order, 14.3 nM and 12.7 nM.
